Results as given in article PMC2873925.

Tests used:
[1] = target: Neisseria meningitidis Opc protein, on capsulate Opc+ bacteria of serogroup B strain MC58 (Neisseria meningitidis serogroup B strain MC58)
[2] = target: Neisseria meningitidis Opc protein (outer membrane adhesin), on acapsulate Opc+ bacteria of serogroup A strain C751 (Neisseria meningitidis serogroup A strain C751) (UniProt Q7DDI3)
[3] = target: Neisseria meningitidis Opc protein, on capsulate Opc+ bacteria of serogroup B strain MC58 (Neisseria meningitidis serogroup B strain MC58); test: depletion from serum by sequential adsorption with whole bacteria, immuno-dot blot of the serum; a serum sample adsorbed sequentially with three fresh live bacterial suspensions, one hour each; remaining activated Vn (mAb 8E6), total Vn and Fn (polyclonal antibodies) by immuno-dot blot and densitometry
[4] = target: Neisseria meningitidis Opc protein (outer membrane adhesin), on acapsulate Opc+ bacteria of serogroup A strain C751 (Neisseria meningitidis serogroup A strain C751) (UniProt Q7DDI3); test: as above

Sequence of fibronectin (human), of normal human serum and purified plasma fibronectin, P02751 32-2477 (natural protein) (P02751 32-2477): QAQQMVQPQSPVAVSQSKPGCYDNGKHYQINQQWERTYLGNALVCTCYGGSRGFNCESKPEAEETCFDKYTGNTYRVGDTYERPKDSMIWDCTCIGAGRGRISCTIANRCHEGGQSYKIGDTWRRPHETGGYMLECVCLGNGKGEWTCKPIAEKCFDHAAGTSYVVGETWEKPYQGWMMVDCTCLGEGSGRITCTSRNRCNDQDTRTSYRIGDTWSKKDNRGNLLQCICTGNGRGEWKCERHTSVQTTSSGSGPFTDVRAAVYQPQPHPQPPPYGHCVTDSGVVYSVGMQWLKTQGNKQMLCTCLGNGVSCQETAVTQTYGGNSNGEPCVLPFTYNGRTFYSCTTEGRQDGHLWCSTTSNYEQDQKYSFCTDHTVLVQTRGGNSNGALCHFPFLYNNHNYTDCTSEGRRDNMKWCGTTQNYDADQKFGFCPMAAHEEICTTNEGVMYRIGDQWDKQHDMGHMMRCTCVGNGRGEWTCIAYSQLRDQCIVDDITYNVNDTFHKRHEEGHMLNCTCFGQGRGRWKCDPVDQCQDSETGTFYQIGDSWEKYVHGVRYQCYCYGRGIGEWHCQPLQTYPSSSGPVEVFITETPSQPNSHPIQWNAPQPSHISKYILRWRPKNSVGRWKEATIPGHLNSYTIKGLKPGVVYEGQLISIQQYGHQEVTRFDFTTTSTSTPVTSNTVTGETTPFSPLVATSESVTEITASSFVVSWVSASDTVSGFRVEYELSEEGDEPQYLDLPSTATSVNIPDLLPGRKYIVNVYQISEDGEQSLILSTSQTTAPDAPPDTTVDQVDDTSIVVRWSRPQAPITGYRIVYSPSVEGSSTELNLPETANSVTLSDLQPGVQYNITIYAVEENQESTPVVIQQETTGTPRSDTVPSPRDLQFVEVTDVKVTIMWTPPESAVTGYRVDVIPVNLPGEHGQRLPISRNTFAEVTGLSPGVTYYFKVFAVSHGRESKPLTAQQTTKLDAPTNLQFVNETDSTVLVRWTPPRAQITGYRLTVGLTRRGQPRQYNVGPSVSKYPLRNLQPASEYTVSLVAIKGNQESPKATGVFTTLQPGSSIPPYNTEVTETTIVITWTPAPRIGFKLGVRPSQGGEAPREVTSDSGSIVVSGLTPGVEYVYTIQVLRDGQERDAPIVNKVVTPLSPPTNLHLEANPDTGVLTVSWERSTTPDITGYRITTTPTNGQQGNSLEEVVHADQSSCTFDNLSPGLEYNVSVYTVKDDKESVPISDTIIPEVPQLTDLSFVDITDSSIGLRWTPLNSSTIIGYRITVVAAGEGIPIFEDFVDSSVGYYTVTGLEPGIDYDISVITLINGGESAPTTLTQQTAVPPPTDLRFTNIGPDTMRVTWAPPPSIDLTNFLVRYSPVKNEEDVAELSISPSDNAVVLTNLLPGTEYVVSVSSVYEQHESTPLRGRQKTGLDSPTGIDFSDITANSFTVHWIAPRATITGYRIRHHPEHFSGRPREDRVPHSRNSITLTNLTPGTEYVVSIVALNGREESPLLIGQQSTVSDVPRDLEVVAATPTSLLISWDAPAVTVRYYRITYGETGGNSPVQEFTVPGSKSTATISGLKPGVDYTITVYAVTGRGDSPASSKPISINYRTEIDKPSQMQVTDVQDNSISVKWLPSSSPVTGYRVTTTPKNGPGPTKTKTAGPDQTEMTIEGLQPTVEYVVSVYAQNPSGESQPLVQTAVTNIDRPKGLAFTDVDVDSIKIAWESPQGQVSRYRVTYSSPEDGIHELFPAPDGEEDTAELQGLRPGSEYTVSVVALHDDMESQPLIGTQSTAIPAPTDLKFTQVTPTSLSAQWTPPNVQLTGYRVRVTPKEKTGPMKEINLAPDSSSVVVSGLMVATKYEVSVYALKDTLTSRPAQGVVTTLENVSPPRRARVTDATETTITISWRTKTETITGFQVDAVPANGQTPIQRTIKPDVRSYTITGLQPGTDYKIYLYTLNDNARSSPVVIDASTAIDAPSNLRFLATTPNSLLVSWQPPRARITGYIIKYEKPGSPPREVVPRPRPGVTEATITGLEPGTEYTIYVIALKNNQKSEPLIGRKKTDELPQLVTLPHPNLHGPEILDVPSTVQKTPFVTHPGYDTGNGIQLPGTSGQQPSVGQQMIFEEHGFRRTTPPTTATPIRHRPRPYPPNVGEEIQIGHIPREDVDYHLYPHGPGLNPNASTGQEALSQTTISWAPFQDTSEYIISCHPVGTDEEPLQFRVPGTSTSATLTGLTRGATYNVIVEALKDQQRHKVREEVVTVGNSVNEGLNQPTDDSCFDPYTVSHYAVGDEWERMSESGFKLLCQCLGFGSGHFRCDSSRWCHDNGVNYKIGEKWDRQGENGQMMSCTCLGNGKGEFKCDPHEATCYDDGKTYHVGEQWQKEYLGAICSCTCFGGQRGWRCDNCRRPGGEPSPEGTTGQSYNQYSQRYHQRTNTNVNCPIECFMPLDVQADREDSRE

VA-21S, synthetic peptide of vitronectin residues 48-68 sulphated at residues 56 and 59
inhibition by VA-21S of VA-26S-mediated adhesion of piliated capsulate Opc+ MC58 to HBMECs (data not illustrated) [1]: 40% | inhibition by VA-21S of VA-26S-mediated invasion of HBMECs by piliated capsulate Opc+ MC58 (data not illustrated) [1]: > 80% | inhibition by VA-21S of VA-26S-mediated adhesion of C751 Opc+ Nm to HBMECs (data not illustrated) [2]: 80% | inhibition by VA-21S of VA-26S-mediated invasion of HBMECs by C751 Opc+ Nm (data not illustrated) [2]: 100%

activated vitronectin (human), from normal human serum, purified by heparin-sepharose chromatography (natural protein)
percent depleted from serum after three adsorptions [3]: 81% | percent depleted from serum after two adsorptions [4]: > 75%

fibronectin (human), of normal human serum and purified plasma fibronectin, P02751 32-2477 (natural protein)
percent depleted from serum after three adsorptions [4]: 20%

vitronectin of normal human serum (total Vn, detected with polyclonal anti-Vn) (natural protein)
percent depleted from serum after three adsorptions [4]: 25%
